Assay results from IntAct's records for PubMed 25910212.

B1: Apolipoprotein D (Homo sapiens), P05090 (parent)
chain: MVMLLLLLSALAGLFGAAEGQAFHLGKCPNPPVQENFDVNKYLGRWYEIEKIPTTFENGRCIQANYSLMENGKIKVLNQELRADGTVNQIEGEATPVNLTEPAKLEVKFSWFMPSAPYWILATDYENYALVYSCTCIIQLFHVDFAWILARNPNLPPETVDSLKNILTSNNIDVKKMTVTDQVNCPKLS
partner: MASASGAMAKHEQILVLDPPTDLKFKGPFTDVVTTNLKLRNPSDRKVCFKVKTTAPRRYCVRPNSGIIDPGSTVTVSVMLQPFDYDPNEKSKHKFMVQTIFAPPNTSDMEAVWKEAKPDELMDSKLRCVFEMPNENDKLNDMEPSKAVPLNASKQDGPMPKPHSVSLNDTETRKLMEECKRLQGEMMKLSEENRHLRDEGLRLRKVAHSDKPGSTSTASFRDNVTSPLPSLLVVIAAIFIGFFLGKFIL
B2: Emerin (Homo sapiens), P50402 (parent)
chain: MDNYADLSDTELTTLLRRYNIPHGPVVGSTRRLYEKKIFEYETQRRRLSPPSSSAASSYSFSDLNSTRGDADMYDLPKKEDALLYQSKGYNDDYYEESYFTTRTYGEPESAGPSRAVRQSVTSFPDADAFHHQVHDDDLLSSSEEECKDRERPMYGRDSAYQSITHYRPVSASRSSLDLSYYPTSSSTSFMSSSSSSSSWLTRRAIRPENRAPGAGLGQDRQVPLWGQLLLFLVFVIVLFFIYHFMQAEEGNPF
B3: Estrogen receptor beta (Homo sapiens), Q92731-3 (parent)
chain: MDIKNSPSSLNSPSSYNCSQSILPLEHGSIYIPSSYVDSHHEYPAMTFYSPAVMNYSIPSNVTNLEGGPGRQTTSPNVLWPTPGHLSPLVVHRQLSHLYAEPQKSPWCEARSLEHTLPVNRETLKRKVSGNRCASPVTGPGSKRDAHFCAVCSDYASGYHYGVWSCEGCKAFFKRSIQGHNDYICPATNQCTIDKNRRKSCQACRLRKCYEVGMVKCGSRRERCGYRLVRRQRSADEQLHCAGKAKRSGGHAPRVRELLLDALSPEQLVLTLLEAEPPHVLISRPSAPFTEASMMMSLTKLADKELVHMISWAKKIPGMRGNA
B4: Krev interaction trapped protein 1 (Homo sapiens), O00522 (parent)
chain: MGNPENIEDAYVAVIRPKNTASLNSREYRAKSYEILLHEVPIEGQKKKRKKVLLETKLQGNSEITQGILDYVVETTKPISPANQGIRGKRVVLMKKFPLDGEKMGREASLFIVPSVVKDNTKYTYTPGCPIFYCLQDIMRVCSESSTHFATLTARMLIALDKWLDERHAQSHFIPALFRPSPLERIKTNVINPAYATESGQTENSLHMGYSALEIKSKMLALEKADTCIYNPLFGSDLQYTNRVDKVVINPYFGLGAPDYSKIQIPKQEKWQRSMSSVTEDKERQWVDDFPLHRSACEGDSELLSRLLSERFSVNQLDSDHWAPIHYACWYGKVEATRILLEKGKCNPNLLNGQLSSPLHFAAGGGHAEIVQILLNHPETDRHITDQQGRSPLNICEENKQNNWEEAAKLLKEAINKPYEKVRIYRMDGSYRSVELKHGNNTTVQQIMEGMRLSQETQQYFTIWICSENLSLQLKPYHKPLQHVRDWPEILAELTNLDPQRETPQLFLRRDVRLPLEVEKQIEDPLAILILFDEARYNLLKGFYTAPDAKLITLASLLLQIVYGNYESKKHKQGFLNEENLKSIVPVTKLKSKAPHWTNRILHEYKNLSTSEGVSKEMHHLQRMFLQNCWEIPTYGAAFFTGQIFTKASPSNHKVIPVYVGVNIKGLHLLNMETKALLISLKYGCFMWQLGDTDTCFQIHSMENKMSFIVHTKQAGLVVKLLMKLNGQLMPTERNS

Variants of: B1
Settings: with vapa_human VAPA

Variant | effect of a mutation on the interaction
F56V | with no effect

Variants of: B2
Settings: with vapb_human VAPB

Variant | effect of a mutation on the interaction
MDNYADLSDTELTTLLRRYNIPHGPVVGSTRRLYEKKIFEYETQRRRLSPPSSFAASSYSFSDLNSTRGDADMYDLPKKEDALLYQSKGYNDDYYEESYFTTRTYGEPESAGPSRAVRQSVTSFPDADAFHHQVHDDDLLSSSEEECKDRERPMYGRDSAYQSITHYRPVSASRSSLDLSYYPTSSSTSFMSSSSSSSSWLTRRAIRPENRAPGAGLGQDRQVPLWGQLLLFLVFVIVLFFIYHFMQAEEGNPF [S54F] | with no effect
MDNYADLSDTELTTLLRRYNIPHGPVVGSTRRLYEKKIFEYETQRRRLSPPSSSAASSYSFSDLNSTRGDADMYDLPKKEDALLYQSKGYNDDYYEESYFTTRTYGEPESAGPSRAVRQSVTSFPDADAFHHQVHDDDLLSSSEEECKDRERPMYGRDSAYQSITHYRPVSASRSSLDLSYYHTSSSTSFMSSSSSSSSWLTRRAIRPENRAPGAGLGQDRQVPLWGQLLLFLVFVIVLFFIYHFMQAEEGNPF [P183H] | with no effect

Variants of: B2
Settings: with tri42_human TRIM42, Q8IWZ5
Sequence of tri42_human TRIM42, Q8IWZ5 (Q8IWZ5 whole entry): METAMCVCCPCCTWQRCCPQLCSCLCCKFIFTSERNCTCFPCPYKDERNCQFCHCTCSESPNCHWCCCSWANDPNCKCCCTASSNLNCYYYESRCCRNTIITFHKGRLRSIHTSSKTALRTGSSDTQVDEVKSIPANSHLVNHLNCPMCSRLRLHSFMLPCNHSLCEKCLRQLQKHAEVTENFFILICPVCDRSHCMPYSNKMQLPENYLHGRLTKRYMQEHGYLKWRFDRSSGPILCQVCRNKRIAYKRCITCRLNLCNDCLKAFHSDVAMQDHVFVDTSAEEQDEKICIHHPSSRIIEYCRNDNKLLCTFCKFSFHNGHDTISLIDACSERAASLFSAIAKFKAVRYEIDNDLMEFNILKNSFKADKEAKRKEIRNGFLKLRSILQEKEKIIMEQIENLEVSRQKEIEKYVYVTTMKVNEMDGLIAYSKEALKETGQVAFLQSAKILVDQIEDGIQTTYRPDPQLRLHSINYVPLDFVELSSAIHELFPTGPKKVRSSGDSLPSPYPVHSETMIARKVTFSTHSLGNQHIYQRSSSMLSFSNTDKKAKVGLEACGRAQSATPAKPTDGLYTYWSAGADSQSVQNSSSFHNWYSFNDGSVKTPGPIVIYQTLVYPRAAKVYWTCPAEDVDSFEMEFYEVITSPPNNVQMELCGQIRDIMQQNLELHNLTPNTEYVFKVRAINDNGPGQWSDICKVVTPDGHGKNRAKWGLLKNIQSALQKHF

Variant | effect of a mutation on the interaction
MDNYADLSDTELTTLLRRYNIPHGPVVGSTRRLYEKKIFEYETQRRRLSPPSSFAASSYSFSDLNSTRGDADMYDLPKKEDALLYQSKGYNDDYYEESYFTTRTYGEPESAGPSRAVRQSVTSFPDADAFHHQVHDDDLLSSSEEECKDRERPMYGRDSAYQSITHYRPVSASRSSLDLSYYPTSSSTSFMSSSSSSSSWLTRRAIRPENRAPGAGLGQDRQVPLWGQLLLFLVFVIVLFFIYHFMQAEEGNPF [S54F] | with no effect
MDNYADLSDTELTTLLRRYNIPHGPVVGSTRRLYEKKIFEYETQRRRLSPPSSSAASSYSFSDLNSTRGDADMYDLPKKEDALLYQSKGYNDDYYEESYFTTRTYGEPESAGPSRAVRQSVTSFPDADAFHHQVHDDDLLSSSEEECKDRERPMYGRDSAYQSITHYRPVSASRSSLDLSYYHTSSSTSFMSSSSSSSSWLTRRAIRPENRAPGAGLGQDRQVPLWGQLLLFLVFVIVLFFIYHFMQAEEGNPF [P183H] | with no effect

Variants of: B2
Settings: with stx4_human STX4, Q12846
Sequence of stx4_human STX4, Q12846 (Q12846 whole entry): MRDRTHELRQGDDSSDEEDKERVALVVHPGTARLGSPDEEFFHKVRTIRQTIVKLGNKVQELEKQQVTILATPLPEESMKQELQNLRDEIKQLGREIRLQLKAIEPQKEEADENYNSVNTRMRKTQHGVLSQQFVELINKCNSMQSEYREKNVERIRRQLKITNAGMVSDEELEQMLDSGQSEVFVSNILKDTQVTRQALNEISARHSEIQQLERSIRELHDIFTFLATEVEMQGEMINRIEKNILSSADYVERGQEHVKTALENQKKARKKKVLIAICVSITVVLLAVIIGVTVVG

Variant | effect of a mutation on the interaction
MDNYADLSDTELTTLLRRYNIPHGPVVGSTRRLYEKKIFEYETQRRRLSPPSSFAASSYSFSDLNSTRGDADMYDLPKKEDALLYQSKGYNDDYYEESYFTTRTYGEPESAGPSRAVRQSVTSFPDADAFHHQVHDDDLLSSSEEECKDRERPMYGRDSAYQSITHYRPVSASRSSLDLSYYPTSSSTSFMSSSSSSSSWLTRRAIRPENRAPGAGLGQDRQVPLWGQLLLFLVFVIVLFFIYHFMQAEEGNPF [S54F] | with no effect
MDNYADLSDTELTTLLRRYNIPHGPVVGSTRRLYEKKIFEYETQRRRLSPPSSSAASSYSFSDLNSTRGDADMYDLPKKEDALLYQSKGYNDDYYEESYFTTRTYGEPESAGPSRAVRQSVTSFPDADAFHHQVHDDDLLSSSEEECKDRERPMYGRDSAYQSITHYRPVSASRSSLDLSYYHTSSSTSFMSSSSSSSSWLTRRAIRPENRAPGAGLGQDRQVPLWGQLLLFLVFVIVLFFIYHFMQAEEGNPF [P183H] | with no effect

Variants of: B2
Settings: with meox2_human MEOX2, P50222
Sequence of meox2_human MEOX2, P50222 (P50222 whole entry): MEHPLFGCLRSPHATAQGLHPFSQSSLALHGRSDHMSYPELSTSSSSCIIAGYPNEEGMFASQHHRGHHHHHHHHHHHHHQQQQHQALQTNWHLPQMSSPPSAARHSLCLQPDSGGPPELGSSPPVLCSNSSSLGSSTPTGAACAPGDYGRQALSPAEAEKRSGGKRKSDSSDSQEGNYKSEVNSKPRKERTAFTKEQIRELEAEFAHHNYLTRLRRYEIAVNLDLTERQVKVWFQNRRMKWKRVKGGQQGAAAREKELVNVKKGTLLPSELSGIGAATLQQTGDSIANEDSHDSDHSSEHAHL

Variant | effect of a mutation on the interaction
MDNYADLSDTELTTLLRRYNIPHGPVVGSTRRLYEKKIFEYETQRRRLSPPSSFAASSYSFSDLNSTRGDADMYDLPKKEDALLYQSKGYNDDYYEESYFTTRTYGEPESAGPSRAVRQSVTSFPDADAFHHQVHDDDLLSSSEEECKDRERPMYGRDSAYQSITHYRPVSASRSSLDLSYYPTSSSTSFMSSSSSSSSWLTRRAIRPENRAPGAGLGQDRQVPLWGQLLLFLVFVIVLFFIYHFMQAEEGNPF [S54F] | with no effect
MDNYADLSDTELTTLLRRYNIPHGPVVGSTRRLYEKKIFEYETQRRRLSPPSSSAASSYSFSDLNSTRGDADMYDLPKKEDALLYQSKGYNDDYYEESYFTTRTYGEPESAGPSRAVRQSVTSFPDADAFHHQVHDDDLLSSSEEECKDRERPMYGRDSAYQSITHYRPVSASRSSLDLSYYHTSSSTSFMSSSSSSSSWLTRRAIRPENRAPGAGLGQDRQVPLWGQLLLFLVFVIVLFFIYHFMQAEEGNPF [P183H] | with no effect

Variants of: B2
Settings: with ccd33_human CCDC33, Q8N5R6
Sequence of ccd33_human CCDC33, Q8N5R6 (Q8N5R6 whole entry): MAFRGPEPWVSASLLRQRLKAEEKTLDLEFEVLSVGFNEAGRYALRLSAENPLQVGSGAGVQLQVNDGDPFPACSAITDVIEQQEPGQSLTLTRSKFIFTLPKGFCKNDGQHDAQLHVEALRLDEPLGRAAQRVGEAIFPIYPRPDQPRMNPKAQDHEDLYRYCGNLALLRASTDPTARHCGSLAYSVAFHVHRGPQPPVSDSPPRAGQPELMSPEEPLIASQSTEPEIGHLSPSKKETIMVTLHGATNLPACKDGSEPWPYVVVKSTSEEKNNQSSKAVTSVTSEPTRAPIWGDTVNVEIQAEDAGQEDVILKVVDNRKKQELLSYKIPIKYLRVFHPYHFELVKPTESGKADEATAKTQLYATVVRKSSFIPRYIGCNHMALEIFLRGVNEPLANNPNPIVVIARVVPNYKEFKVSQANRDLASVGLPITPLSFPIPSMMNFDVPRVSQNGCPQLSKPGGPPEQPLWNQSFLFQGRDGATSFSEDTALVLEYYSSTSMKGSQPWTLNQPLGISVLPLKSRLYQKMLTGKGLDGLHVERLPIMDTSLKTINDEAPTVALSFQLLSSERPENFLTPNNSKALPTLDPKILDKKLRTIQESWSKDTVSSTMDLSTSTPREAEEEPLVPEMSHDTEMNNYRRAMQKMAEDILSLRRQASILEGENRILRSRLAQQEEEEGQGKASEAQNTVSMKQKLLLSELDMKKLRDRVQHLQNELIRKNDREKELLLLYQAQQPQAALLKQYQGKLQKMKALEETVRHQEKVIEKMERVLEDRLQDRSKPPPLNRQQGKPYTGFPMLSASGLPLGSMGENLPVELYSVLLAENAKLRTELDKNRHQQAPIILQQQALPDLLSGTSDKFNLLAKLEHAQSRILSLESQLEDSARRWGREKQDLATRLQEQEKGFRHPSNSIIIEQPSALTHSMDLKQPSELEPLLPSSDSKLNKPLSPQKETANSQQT

Variant | effect of a mutation on the interaction
MDNYADLSDTELTTLLRRYNIPHGPVVGSTRRLYEKKIFEYETQRRRLSPPSSFAASSYSFSDLNSTRGDADMYDLPKKEDALLYQSKGYNDDYYEESYFTTRTYGEPESAGPSRAVRQSVTSFPDADAFHHQVHDDDLLSSSEEECKDRERPMYGRDSAYQSITHYRPVSASRSSLDLSYYPTSSSTSFMSSSSSSSSWLTRRAIRPENRAPGAGLGQDRQVPLWGQLLLFLVFVIVLFFIYHFMQAEEGNPF [S54F] | with no effect
MDNYADLSDTELTTLLRRYNIPHGPVVGSTRRLYEKKIFEYETQRRRLSPPSSSAASSYSFSDLNSTRGDADMYDLPKKEDALLYQSKGYNDDYYEESYFTTRTYGEPESAGPSRAVRQSVTSFPDADAFHHQVHDDDLLSSSEEECKDRERPMYGRDSAYQSITHYRPVSASRSSLDLSYYHTSSSTSFMSSSSSSSSWLTRRAIRPENRAPGAGLGQDRQVPLWGQLLLFLVFVIVLFFIYHFMQAEEGNPF [P183H] | with no effect

Variants of: B3
Settings: with tfcp2_human TFCP2, Q12800
Sequence of tfcp2_human TFCP2, Q12800 (Q12800 whole entry): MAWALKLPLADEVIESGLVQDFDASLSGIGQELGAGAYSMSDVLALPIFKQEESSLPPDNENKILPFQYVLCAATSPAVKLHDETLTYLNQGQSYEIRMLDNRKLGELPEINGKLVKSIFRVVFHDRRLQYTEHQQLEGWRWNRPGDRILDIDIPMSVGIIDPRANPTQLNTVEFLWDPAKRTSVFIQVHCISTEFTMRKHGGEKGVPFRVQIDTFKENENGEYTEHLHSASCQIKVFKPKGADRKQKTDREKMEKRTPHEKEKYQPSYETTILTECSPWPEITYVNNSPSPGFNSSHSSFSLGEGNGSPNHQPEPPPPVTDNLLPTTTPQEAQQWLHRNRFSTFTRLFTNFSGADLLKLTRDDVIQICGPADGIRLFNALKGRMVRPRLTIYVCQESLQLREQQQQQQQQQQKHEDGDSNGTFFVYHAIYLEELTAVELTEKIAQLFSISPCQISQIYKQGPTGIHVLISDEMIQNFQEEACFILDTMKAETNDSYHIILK

Variant | effect of a mutation on the interaction
MDIKNSPSSLNSPSSYNCSQSILPLEHGSIYIPSSYVDSHHEYPAMTFYSPAVMNYSIPSNVTNLEGGPGRQTTSPNVLWPTPGHLSPLVVHRQLSHLYAEPQKSPWCEARSLEHTLPVNRETLKRKVSGNRCASPVTGPGSKRDAHFCAVCSDYASGYHYGVWSCEGCKAFFKRSIQGHNDYICPATNQCTIDKNRRKSCQACRLRKCYEVGMVKCGSRRERCGYRLVRRQRSADEQLHCAGKAKRSGGHAPRVRELLLDALSPEQLVLTLLEAEPPHVLISRPSAPLTEASMMMSLTKLADKELVHMISWAKKIPGMRGNA [F289L] | causing an interaction

Variants of: B3
Settings: with mdfi_human MDFI

Variant | effect of a mutation on the interaction
MDIKNSPSSLNSPSSYNCSQSILPLEHGSIYIPSSYVDSHHEYPAMTFYSPAVMNYSIPSNVTNLEGGPGRQTTSPNVLWPTPGHLSPLVVHRQLSHLYAEPQKSPWCEARSLEHTLPVNRETLKRKVSGNRCASPVTGPGSKRDAHFCAVCSDYASGYHYGVWSCEGCKAFFKRSIQGHNDYICPATNQCTIDKNRRKSCQACRLRKCYEVGMVKCGSRRERCGYRLVRRQRSADEQLHCAGKAKRSGGHAPRVRELLLDALSPEQLVLTLLEAEPPHVLISRPSAPLTEASMMMSLTKLADKELVHMISWAKKIPGMRGNA [F289L] | causing an interaction

Variants of: B4
Settings: with ccm2_human CCM2, Q9BSQ5
Sequence of ccm2_human CCM2, Q9BSQ5 (Q9BSQ5 whole entry): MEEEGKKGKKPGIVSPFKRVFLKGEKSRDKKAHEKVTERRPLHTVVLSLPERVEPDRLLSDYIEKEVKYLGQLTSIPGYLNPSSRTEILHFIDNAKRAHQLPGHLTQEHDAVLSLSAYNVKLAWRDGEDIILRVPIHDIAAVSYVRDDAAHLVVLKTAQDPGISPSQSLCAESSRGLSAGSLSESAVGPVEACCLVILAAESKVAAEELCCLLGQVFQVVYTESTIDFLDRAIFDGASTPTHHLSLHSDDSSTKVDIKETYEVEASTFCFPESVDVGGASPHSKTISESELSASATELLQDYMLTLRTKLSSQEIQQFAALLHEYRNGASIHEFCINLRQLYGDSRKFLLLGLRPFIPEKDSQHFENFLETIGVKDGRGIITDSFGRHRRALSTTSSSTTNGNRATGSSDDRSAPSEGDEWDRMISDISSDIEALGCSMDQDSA

Variant | effect of a mutation on the interaction
D137G | with no effect
